Source: patent US12454527B2, “Conjugate monomethyl auristatin E to obtain a composition for treatment of prostate cancer” (priority 2019, dated 2025)
“And” between values parts separate entries of the source, which are not always exact repeats. Equal entries are not always repeated. Where two headings read alike, the source gives them in different places. Starred links: 1 amine or outer side, 2 acyl side, 3 side chain; linkers in the order of their positions; H or OH if unused. Non-standard residues stand in square brackets, D forms with d. Residues, ends and D or L forms follow the SMILES beside them. ξ: configuration not given here. *: point of attachment. GluureaLys(ε-3-ClBenzyl) = O=C(O)CC[C@H](NC(=O)N[C@@H](CCCCN(Cc1cccc(Cl)c1)*)C(=O)O)C(=O)O; Dolaproine = CO[C@@H]([C@@H]1CCCN1)[C@@H](C)C(=O)O; Dil = CC[C@H](C)[C@H](NC)[C@@H](CC(=O)O)OC; X1 = O=C(CCCc1cn(CCCN[*:1])nn1)[*:2]; PABC = O=C(OCc1ccc(N[*:1])cc1)[*:2]; X2 = C[C@@H](N*)[C@@H](O)c1ccccc1; Cit = NC(=O)NCCC[C@H](N)C(=O)O; Suc = O=C(CCC(=O)[*:2])[*:1]; NMeV = CN[C@H](C(=O)O)C(C)C; ξV = CC(C)C(N)C(=O)O; Ahx = NCCCCCC(=O)O

Legend:
[1] = Pharmacokinetics in plasma of rats after a single injection; assay type: in vivo; conditions: for level at 0.5 h: 0.50 hour
Experimental: (§1) The pharmacokinetics study for the Conjugate (I) product in plasma of rabbits and rats after a single injection.
(§2) The leporids and rodents are the standard targets for preclinical studies of potential drug products as well as determining the pharmacokinetic parameters. The rabbits and rats are recommended as test systems to study pharmacokinetic properties of pharmaceutical products by the regulatory documents (FIG. 7, FIG. 8).
This study was performed on healthy awake white outbred mature male rats aged about 3 months with body weight of 190-210 g. […] The pharmacokinetic data, determined from this number of test animals, are sufficient to obtain the primary quantitative characteristics of test product distribution and elimination and the calculation of descriptive statistics parameters.
(§3) • 1. Conjugate (1) • 2. Solubilizer Pluronic F127—in the amount, five-fold greater than the conjugate amount by weight. • 3, Diluent—Haemodes infusion solution. • Dimethyl sulfoxide—in the amount of 5% of the prepared volume. • Rabbit experiment (see Tables 5, 6), • Rat experiment (see Tables 7, 8).

[2] = Pharmacokinetics in plasma of rabbits after a single injection; assay type: in vivo; conditions: male, Soviet Chinchilla, rabbit, plasma
Text: as §1, §2
[…] The pharmacokinetic data, determined from this number of test animals, are sufficient to obtain the primary quantitative characteristics of test product distribution and elimination and the calculation of descriptive statistics parameters.
as §3

[3] = male, white outbred, rat, plasma, rats N=6, read-out: Concentration in blood plasma, Geometr. mean
[4] = male, white outbred, rat, plasma, rats N=6, read-out: Concentration in blood plasma, Mean value
[5] = male, white outbred, rat, plasma, rats N=6, read-out: Concentration in blood plasma, Median
[6] = male, white outbred, rat, plasma, rats, read-out: Concentration in blood plasma (individual animals)

SMILES: CC[C@H](C)[C@@H]([C@@H](CC(=O)N1CCC[C@H]1[C@H](OC)[C@@H](C)C(=O)N[C@H](C)[C@@H](O)c1ccccc1)OC)N(C)C(=O)[C@@H](NC(=O)[C@H](C(C)C)N(C)C(=O)OCc1ccc(NC(=O)[C@H](CCCNC(N)=O)NC(=O)C(NC(=O)CCCc2cn(CCCNC(=O)[C@H](Cc3ccc(O)cc3)NC(=O)[C@H](Cc3ccccc3)NC(=O)CCC(=O)NCCCCCC(=O)N(CCCC[C@H](NC(=O)N[C@@H](CCC(=O)O)C(=O)O)C(=O)O)Cc3cccc(Cl)c3)nn2)C(C)C)cc1)C(C)C (some centres unmarked) [Conjugate (I)] ({GluureaLys(ε-3-ClBenzyl)-Ahx-Suc}-FY[X1][ξV][Cit][PABC][NMeV]V[Dil][Dolaproine]-X2)
- half-life ([1]; male, white outbred, rat, plasma, intravenous, 1.5 mg/kg, rats, individual animals): 4.11 h
- MRT last ([1]; male, white outbred, rat, plasma, intravenous, 1.5 mg/kg, rats, individual animals, read-out: MRT 0-t): 3.98 h
- level at 0.08 h [1, 3]: 19000 ng/mL
- level at 0.08 h [1, 4]: 26100 ng/mL
- level at 0.08 h [1, 5]: 19100 ng/mL
- level at 0.25 h [1, 3]: 17000 ng/mL
- level at 0.25 h [1, 4]: 19900 ng/mL
- level at 0.25 h [1, 5]: 18000 ng/mL
- level at 0.5 h [1, 3]: 16200 ng/mL
- level at 0.5 h [1, 4]: 18000 ng/mL
- level at 0.5 h [1, 5]: 14300 ng/mL
- level at 1 h [1, 3]: 13400 ng/mL
- level at 1 h [1, 4]: 15200 ng/mL
- level at 1 h [1, 5]: 12500 ng/mL
- level at 1.5 h ([1]; male, white outbred, rat, plasma, rats N=6, 1.50 hour, read-out: Concentration in blood plasma, Geometr. mean): 10700 ng/mL
- level at 1.5 h ([1]; male, white outbred, rat, plasma, rats N=6, 1.50 hour, read-out: Concentration in blood plasma, Mean value): 11600 ng/mL
- level at 1.5 h ([1]; male, white outbred, rat, plasma, rats N=6, 1.50 hour, read-out: Concentration in blood plasma, Median): 10700 ng/mL
- level at 2 h [1, 3]: 10900 ng/mL
- level at 2 h [1, 4]: 11500 ng/mL
- level at 2 h [1, 5]: 10500 ng/mL
- level at 3 h [1, 3]: 7480 ng/mL
- level at 3 h [1, 4]: 7680 ng/mL
- level at 3 h [1, 5]: 7470 ng/mL
- level at 4 h ([1]; male, white outbred, rat, plasma, rats N=6, 4.00 hour, read-out: Concentration in blood plasma, Geometr. mean): 5730 ng/mL
- level at 4 h ([1]; male, white outbred, rat, plasma, rats N=6, 4.00 hour, read-out: Concentration in blood plasma, Mean value): 5860 ng/mL
- level at 4 h ([1]; male, white outbred, rat, plasma, rats N=6, 4.00 hour, read-out: Concentration in blood plasma, Median): 5840 ng/mL
- level at 6 h ([1]; male, white outbred, rat, plasma, rats N=6, 6.00 hour, read-out: Concentration in blood plasma, Geometr. mean): 4390 ng/mL
- level at 6 h ([1]; male, white outbred, rat, plasma, rats N=6, 6.00 hour, read-out: Concentration in blood plasma, Mean value): 4500 ng/mL
- level at 6 h ([1]; male, white outbred, rat, plasma, rats N=6, 6.00 hour, read-out: Concentration in blood plasma, Median): 4240 ng/mL
- level at 8 h [1, 3]: 3260 ng/mL
- level at 8 h [1, 4]: 3350 ng/mL
- level at 8 h [1, 5]: 3190 ng/mL
- level at 10 h [1, 3]: 2300 ng/mL
- level at 10 h [1, 4]: 2370 ng/mL
- level at 10 h [1, 5]: 2090 ng/mL
- level at 12 h [1, 3]: 1760 ng/mL
- level at 12 h [1, 4]: 1820 ng/mL
- level at 12 h [1, 5]: 1620 ng/mL
- level at 8 h [1, 6]: 2620 ng/mL
- level at 10 h [1, 6]: 2000 ng/mL
- Concentration in blood plasma (individual animals) ([1]; rats, 1.50 hour): 8007 ng/mL
- Concentration in blood plasma (individual animals) ([1]; rats, 4.00 hour): 5834 ng/mL and 5880 ng/mL
- Concentration in blood plasma (individual animals) ([1]; rats, 6.00 hour): 4247 ng/mL
- AUC0-t ([1]; rats, individual animals): 60334 ng·h/mL and 45653 ng·h/mL and 95993 ng·h/mL and 110564 ng·h/mL and 83377 ng·h/mL and 57819 ng·h/mL
- AUC0-∞ ([1]; rats, individual animals): 69475 ng·h/mL and 54945 ng·h/mL and 115670 ng·h/mL and 121598 ng·h/mL and 96420 ng·h/mL and 69132 ng·h/mL
- C0 ([1]; rats, individual animals): 14307 ng/mL and 5351 ng/mL and 25202 ng/mL and 96531 ng/mL and 27501 ng/mL and 15195 ng/mL
- T1/2 ([1]; rats, individual animals): 5.10 h and 5.00 h and 4.49 h and 4.13 h and 5.14 h
- Vd ([1]; rats, individual animals): 0.12816 L/kg and 0.20101 L/kg and 0.09361 L/kg and 0.07983 L/kg and 0.09261 L/kg and 0.16076 L/kg
- AUC0-t ([2]; intravenous, 0.81 mg/kg, rabbits N=6, read-out: AUC0-t, Geometr. mean): 30200 ng·h/mL
- AUC0-t ([2]; intravenous, 0.81 mg/kg, rabbits N=6, read-out: AUC0-t, Mean value): 30700 ng·h/mL
- AUC0-t ([2]; intravenous, 0.81 mg/kg, rabbits N=6, read-out: AUC0-t, Median): 30200 ng·h/mL
- AUC(0-inf) ([2]; intravenous, 0.81 mg/kg, rabbits N=6, read-out: AUC0-∞, Geometr. mean): 34700 ng·h/mL
- AUC(0-inf) ([2]; intravenous, 0.81 mg/kg, rabbits N=6, read-out: AUC0-∞, Mean value): 35100 ng·h/mL
- AUC(0-inf) ([2]; intravenous, 0.81 mg/kg, rabbits N=6, read-out: AUC0-∞, Median): 36100 ng·h/mL
- MRT last ([2]; intravenous, 0.81 mg/kg, rabbits N=6, read-out: MRT0-t, Geometr. mean): 3.43 h
- MRT last ([2]; intravenous, 0.81 mg/kg, rabbits N=6, read-out: MRT0-t, Mean value): 3.44 h
- MRT last ([2]; intravenous, 0.81 mg/kg, rabbits N=6, read-out: MRT0-t, Median): 3.38 h
- half-life ([2]; intravenous, 0.81 mg/kg, rabbits N=6, read-out: T1/2, Geometr. mean (converted)): 4.33 h
- half-life ([2]; intravenous, 0.81 mg/kg, rabbits N=6, read-out: T1/2, Mean value (converted)): 4.58 h
- half-life ([2]; intravenous, 0.81 mg/kg, rabbits N=6, read-out: T1/2, Median (converted)): 4.59 h
- Vd ([2]; intravenous, 0.81 mg/kg, rabbits N=6, read-out: Vd, Geometr. mean): 0.146 L/kg
- Vd ([2]; intravenous, 0.81 mg/kg, rabbits N=6, read-out: Vd, Mean value): 0.158 L/kg
- Vd ([2]; intravenous, 0.81 mg/kg, rabbits N=6, read-out: Vd, Median): 0.144 L/kg
- AUC0-t ([2]; intravenous, 0.81 mg/kg, rabbits, individual animals, read-out: AUC0-t): 31400 ng·h/mL
- AUC(0-inf) ([2]; intravenous, 0.81 mg/kg, rabbits, individual animals, read-out: AUC0-∞): 35300 ng·h/mL
- C0 ([2]; intravenous, 0.81 mg/kg, rabbits, individual animals, read-out: C0): 10700 ng/mL
- MRT last ([2]; intravenous, 0.81 mg/kg, rabbits, individual animals, read-out: MRT0-t): 3.12 h
- level at 0.08 h ([2]; rabbits N=6, 0.08 hour, read-out: Concentration in blood plasma, Geometr. mean): 10300 ng/mL
